Test results published in patent US11242370B2, “Neuregulin-4 compounds and methods of use” (Eli Lilly and Company, priority 2019, dated 2022).
Positions count from the first letter of the chain named. Numbers in names are those of the source. Marks after values point to notes of the source that are not given here.

Key:
human HER2/HER3 = biological target: T1, human HER2/HER3 (Homo sapiens, UniProt P21860); experiment: Human HER2/HER3 phospho-ERK 1/2 assay, purified proteins, CHO-K1 cells; assay type: cell-based; details: purified proteins; phospho-ERK1/2
T1 construct: expressed in transfected cells
Experimental: (§1) A cell based assay utilizing CHO-K1 cells overexpressing human or rat HER receptors is used to determine activity of NRG4 compounds. CHO-K1 cells (ATCC) are grown in DMEM-F12 3:1 with 5% FBS with 20 mM HEPES, 40 μg/mL L-Proline, lx antibiotics and were split 1:5 every 2-3 days with TripLE Express (Gibco). Cells are transfected with plasmid DNA encoding HER receptors in pairs (hHER2-3, hHER2-4, rHER2-3 and rHER2-4) with Fugene 6 (Promega) according to the manufacturer's instructions. […] Transfected cells are selected with Puromycin (12 ug/ml) and Hygromycin (1 mg/ml) for 3-4 weeks and clonal lines are obtained by limited dilution cloning into 96 well plates. Clonal lines are selected by appropriate gene expression of HER2, HER3 or HER4 by Taqman method. Lines with appropriate receptor expression are confirmed by NRG1 induced phospho-ERK 1/2 responses. Clones are grown up, harvested, aliquoted into cryovials and then frozen under liquid nitrogen for long-term storage.
(§2) A phospho-ERK1/2 activity assay is utilized with CHO-K1 cells overexpressing human or rat HER receptors to determine potencies and selectivity of purified NRG4 compounds. CHO-K1 cell lines expressing the human or rat HER receptors are cultured with selection medium (DMEM-F12 3:1 with 5% FBS with 20 mM HEPES, 40 μg/mL L-Proline, 1× antibiotics, 12 μg/mL puromycin, 1 mg/mL Hygromycin B). On Day −1 (the day before phospho-ERK1/2 assay), cells are washed once with PBS, detached with enzyme free cell dissociation solution (GIBCO cat #13151-014), and resuspended in plating medium (DMEM-F12 3:1 with 20 mM HEPES, lx antibiotics, 0.2% FBS). Cells are plated in a 96-well Poly-D-Lysine coated plate (BD cat #354640) at 10,000 cells per 0.1 mL per well. Cells are cultured in a tissue culture incubator at 37° C. 5% CO2 overnight. On Day 1 (the day of pERK1/2 assay), plates are incubated at room temperature for 30 min. The culture media are removed followed by addition of 504, ligand at various concentrations diluted in PBS-20 mM HEPES-0.005% BSA. Native human NRG1 and NRG4 peptides are purchased from Reprokine (Tampa, Fla.). The stimulation time is 30 min (except for hHER2-4 1H6 line in which 15 min is used for stimulation). At the end of stimulation, ligands are removed and 704, Lysis buffer (made according to manufacturer's recipe, Perkin Elmer cat #ALSU-PERK-A10K) is added. Plates are incubated at room temperature for 10 min on plate shaker with 350 rpm agitation, then on ice for 1 hour without shaking. 304, of cell lysis is transferred to a 96-well white Optiplate (Perkin Elmer cat #6002290) for phospho-ERK1/2 assay. Briefly 7.5 μL acceptor beads are added to 30 μL lysis in Optiplate. The plate is covered with aluminum foil and incubated at room temperature for 1 hour on plate shaker with 350 rpm agitation. Then 7.5 μL donor beads are added and the plate is covered with aluminum foil and incubated at room temperature for 2 hours on plate shaker with 350 rpm agitation or at 4° C. for overnight (warm up plate at room temperature for 2 h before reading). Alpha signal data are obtained on an Envision instrument (Alpha Technology-compatible plate reader). Donor beads and acceptor beads are made according to assay protocol. The data shown are generated with either the AlphaScreen SureFire p-ERK1/2 (Thr202/Tyr204) assay kit (Cat #TGRES50k) or the AlphaLISA® SureFire® Ultra™ p-ERK 1/2 (Thr202/Tyr204) assay kit (Perkin Elmer cat #ALSU-PERK-A10K). The activity of the NRG1 peptide was similar in both types of assays. […]

rat HER2/HER4 = biological target: T2, rat HER2/HER4 (Rattus norvegicus, UniProt Q62956); experiment: Rat HER2/HER4 phospho-ERK 1/2 assay, purified proteins, CHO-K1 cells; assay type: cell-based
T2 construct: expressed in transfected cells
T2 sequence (Q62956 26-1308): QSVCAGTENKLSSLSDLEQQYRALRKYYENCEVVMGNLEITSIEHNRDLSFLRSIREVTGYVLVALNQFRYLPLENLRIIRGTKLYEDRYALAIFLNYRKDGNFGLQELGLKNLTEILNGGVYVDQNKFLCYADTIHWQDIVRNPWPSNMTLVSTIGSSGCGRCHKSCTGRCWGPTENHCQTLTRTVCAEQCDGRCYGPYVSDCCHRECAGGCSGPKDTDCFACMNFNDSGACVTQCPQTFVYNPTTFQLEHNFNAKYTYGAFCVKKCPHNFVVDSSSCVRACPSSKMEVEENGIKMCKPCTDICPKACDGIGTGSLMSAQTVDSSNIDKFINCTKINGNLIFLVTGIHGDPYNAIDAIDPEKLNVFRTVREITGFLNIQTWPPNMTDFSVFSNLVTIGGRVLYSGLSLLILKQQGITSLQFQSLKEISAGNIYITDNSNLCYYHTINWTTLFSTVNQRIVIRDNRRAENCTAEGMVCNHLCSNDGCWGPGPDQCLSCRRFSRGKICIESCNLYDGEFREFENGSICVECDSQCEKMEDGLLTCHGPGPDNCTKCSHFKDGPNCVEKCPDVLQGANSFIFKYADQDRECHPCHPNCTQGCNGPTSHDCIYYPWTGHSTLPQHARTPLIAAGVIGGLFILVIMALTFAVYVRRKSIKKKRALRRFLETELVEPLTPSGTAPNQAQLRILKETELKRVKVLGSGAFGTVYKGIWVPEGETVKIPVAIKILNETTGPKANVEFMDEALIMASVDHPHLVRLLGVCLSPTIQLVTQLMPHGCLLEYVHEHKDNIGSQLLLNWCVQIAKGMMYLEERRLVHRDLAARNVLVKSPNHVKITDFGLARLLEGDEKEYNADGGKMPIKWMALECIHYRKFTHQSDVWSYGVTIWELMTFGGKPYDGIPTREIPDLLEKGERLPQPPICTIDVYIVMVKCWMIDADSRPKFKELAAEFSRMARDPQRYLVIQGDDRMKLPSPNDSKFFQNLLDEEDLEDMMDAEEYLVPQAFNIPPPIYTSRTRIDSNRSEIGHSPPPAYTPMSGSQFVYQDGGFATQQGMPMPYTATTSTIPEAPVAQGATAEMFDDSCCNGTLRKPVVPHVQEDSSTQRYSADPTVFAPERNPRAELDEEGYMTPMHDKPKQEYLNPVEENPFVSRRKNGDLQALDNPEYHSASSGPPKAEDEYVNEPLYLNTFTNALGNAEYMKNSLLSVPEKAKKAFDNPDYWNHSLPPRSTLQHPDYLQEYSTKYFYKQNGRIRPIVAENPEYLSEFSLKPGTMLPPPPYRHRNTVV
T2 sequence (P06494 23-1257 partner): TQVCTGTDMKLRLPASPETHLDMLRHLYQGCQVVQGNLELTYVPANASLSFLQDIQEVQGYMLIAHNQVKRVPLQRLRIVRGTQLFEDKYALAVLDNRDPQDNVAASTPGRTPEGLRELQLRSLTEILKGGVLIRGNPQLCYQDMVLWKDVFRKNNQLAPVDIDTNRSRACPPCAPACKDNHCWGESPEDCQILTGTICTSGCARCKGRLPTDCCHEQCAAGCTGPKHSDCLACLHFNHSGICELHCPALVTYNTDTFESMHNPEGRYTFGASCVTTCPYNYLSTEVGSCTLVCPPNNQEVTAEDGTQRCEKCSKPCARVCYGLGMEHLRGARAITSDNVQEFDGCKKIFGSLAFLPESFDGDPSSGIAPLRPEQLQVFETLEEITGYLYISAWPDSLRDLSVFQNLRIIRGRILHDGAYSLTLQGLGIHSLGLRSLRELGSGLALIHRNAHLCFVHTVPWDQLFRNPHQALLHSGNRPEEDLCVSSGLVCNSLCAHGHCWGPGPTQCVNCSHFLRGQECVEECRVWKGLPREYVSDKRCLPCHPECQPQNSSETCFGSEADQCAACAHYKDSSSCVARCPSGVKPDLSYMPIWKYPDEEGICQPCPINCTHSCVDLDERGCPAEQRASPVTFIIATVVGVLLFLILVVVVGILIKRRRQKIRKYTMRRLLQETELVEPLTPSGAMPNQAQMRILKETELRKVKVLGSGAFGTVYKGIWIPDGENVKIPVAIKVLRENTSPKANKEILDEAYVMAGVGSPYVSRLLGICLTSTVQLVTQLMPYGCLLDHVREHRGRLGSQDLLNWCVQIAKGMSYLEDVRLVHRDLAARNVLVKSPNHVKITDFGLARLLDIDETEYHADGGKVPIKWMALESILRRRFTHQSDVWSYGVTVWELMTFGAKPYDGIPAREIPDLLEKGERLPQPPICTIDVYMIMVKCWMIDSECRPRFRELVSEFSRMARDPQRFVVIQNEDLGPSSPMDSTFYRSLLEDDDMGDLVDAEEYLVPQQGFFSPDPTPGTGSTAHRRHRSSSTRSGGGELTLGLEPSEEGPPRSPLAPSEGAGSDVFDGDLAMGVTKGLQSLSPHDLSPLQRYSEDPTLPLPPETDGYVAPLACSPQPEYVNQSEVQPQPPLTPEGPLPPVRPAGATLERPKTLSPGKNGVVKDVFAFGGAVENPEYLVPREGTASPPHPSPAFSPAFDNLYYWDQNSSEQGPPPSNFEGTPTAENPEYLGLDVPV
Experimental: as §1
as §2, with “assays. Raw data obtained from the Envision instrument is imported into GraphPad Prism software (version 7). The EC50 value is generated by a variable slope-four parameter dose response curve. The % of maximal NRG1 activity data are generated by expressing the average maximal raw data for the NRG4 compound over the average maximal raw data for the native human NRG1 per plate and multiplying by 100. Data are provided below in Tables 7-9. N values reflect number of independent assays run.” for “assays.”

human HER2/HER4 = biological target: T3, human HER2/HER4 (Homo sapiens, UniProt Q15303); experiment: Human HER2/HER4 phospho-ERK 1/2 assay, purified proteins, CHO-K1 cells; assay type: cell-based
T3 construct: expressed in transfected cells
Experimental: as §1
as §2, with “assays. Raw data obtained from the Envision instrument is imported into GraphPad Prism software (version 7). The EC50 value is generated by a variable slope-four parameter dose response curve. The % of maximal NRG1 activity data are generated by expressing the average maximal raw data for the NRG4 compound over the average maximal raw data for the native human NRG1 per plate and multiplying by 100. Data are provided below in Tables 7-9. N values reflect number of independent assays run.” for “assays.”

[1] = Plasma pharmacokinetics in rats (toxicology studies); details: rat, in vivo, sc, 30 mg/kg
Experimental: (§3) Example 11 is administered in a single 3 mg/kg dose to male and female monkeys by SC bolus injection.

rat HER2/HER3 = biological target: T4, rat HER2/HER3 (Rattus norvegicus, UniProt Q62799); experiment: Rat HER2/HER3 phospho-ERK 1/2 assay, purified proteins, CHO-K1 cells; assay type: cell-based; details: phospho-ERK1/2
T4 construct: expressed in transfected cells
T4 sequence (Q62799 20-1339): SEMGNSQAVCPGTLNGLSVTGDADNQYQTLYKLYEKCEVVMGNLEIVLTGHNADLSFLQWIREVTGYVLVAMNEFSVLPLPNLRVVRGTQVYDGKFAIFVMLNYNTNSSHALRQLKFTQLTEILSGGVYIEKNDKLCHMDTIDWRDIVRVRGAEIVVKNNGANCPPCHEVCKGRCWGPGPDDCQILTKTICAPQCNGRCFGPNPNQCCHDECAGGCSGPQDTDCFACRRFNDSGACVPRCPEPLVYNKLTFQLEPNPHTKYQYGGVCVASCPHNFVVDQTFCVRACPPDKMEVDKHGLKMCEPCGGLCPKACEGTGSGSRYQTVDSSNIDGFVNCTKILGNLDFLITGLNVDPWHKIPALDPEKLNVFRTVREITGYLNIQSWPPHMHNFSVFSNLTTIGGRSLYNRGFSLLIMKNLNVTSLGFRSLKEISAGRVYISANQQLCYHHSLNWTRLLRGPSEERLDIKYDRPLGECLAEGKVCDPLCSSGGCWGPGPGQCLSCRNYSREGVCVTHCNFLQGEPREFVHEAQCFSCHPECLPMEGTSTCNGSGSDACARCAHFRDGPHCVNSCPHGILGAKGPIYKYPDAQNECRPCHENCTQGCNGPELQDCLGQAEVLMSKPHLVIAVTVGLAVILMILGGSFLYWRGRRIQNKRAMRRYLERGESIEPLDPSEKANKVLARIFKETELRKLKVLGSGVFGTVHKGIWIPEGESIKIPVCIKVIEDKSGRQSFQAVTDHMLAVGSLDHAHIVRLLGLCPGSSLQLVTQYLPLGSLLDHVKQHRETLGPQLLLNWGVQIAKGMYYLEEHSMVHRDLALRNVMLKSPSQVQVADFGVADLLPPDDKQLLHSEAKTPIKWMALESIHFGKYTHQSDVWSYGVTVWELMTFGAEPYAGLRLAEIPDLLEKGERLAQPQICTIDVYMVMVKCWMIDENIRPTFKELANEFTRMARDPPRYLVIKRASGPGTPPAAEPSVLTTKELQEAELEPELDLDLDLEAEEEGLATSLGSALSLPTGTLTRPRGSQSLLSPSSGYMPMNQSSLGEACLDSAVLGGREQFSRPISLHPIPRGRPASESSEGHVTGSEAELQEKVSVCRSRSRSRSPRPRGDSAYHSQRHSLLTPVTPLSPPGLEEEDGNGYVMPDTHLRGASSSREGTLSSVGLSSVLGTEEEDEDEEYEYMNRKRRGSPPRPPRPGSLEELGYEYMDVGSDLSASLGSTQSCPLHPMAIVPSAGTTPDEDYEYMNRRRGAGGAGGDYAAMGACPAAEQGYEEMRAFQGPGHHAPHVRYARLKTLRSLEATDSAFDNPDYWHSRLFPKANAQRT
T4 sequence (P06494 23-1257 partner): as the sequence (P06494 23-1257 partner) above
Experimental: as §1
A phospho-ERK1/2 activity assay is utilized with CHO-K1 cells overexpressing human or rat HER receptors to determine potencies and selectivity of purified NRG4 compounds. CHO-K1 cell lines expressing the human or rat HER receptors are cultured with selection medium (DMEM-F12 3:1 with 5% FBS with 20 mM HEPES, 40 μg/mL L-Proline, 1× antibiotics, 12 μg/mL puromycin, 1 mg/mL Hygromycin B). On Day −1 (the day before phospho-ERK1/2 assay), cells are washed once with PBS, detached with enzyme free cell dissociation solution (GIBCO cat #13151-014), and resuspended in plating medium (DMEM-F12 3:1 with 20 mM HEPES, lx antibiotics, 0.2% FBS). Cells are plated in a 96-well Poly-D-Lysine coated plate (BD cat #354640) at 10,000 cells per 0.1 mL per well. […] Then 7.5 μL donor beads are added and the plate is covered with aluminum foil and incubated at room temperature for 2 hours on plate shaker with 350 rpm agitation or at 4° C. for overnight (warm up plate at room temperature for 2 h before reading). Alpha signal data are obtained on an Envision instrument (Alpha Technology-compatible plate reader). […]

cynomolgus monkeys = experiment: Toxicology study in cynomolgus monkeys, cardiac tissue inspection; details: male and female monkeys, single 3 mg/kg SC bolus injection
Experimental: as §3

[2] = Plasma pharmacokinetics in monkeys (toxicology studies); details: cynomolgus monkey, in vivo, sc, 3 mg/kg
Experimental: as §3

rats = experiment: Toxicology study in rats, cardiac tissue inspection; details: single SC injection of 30 mg/kg
[3] = test system: rat model of heart failure with reduced ejection fraction (HFrEF); experiment: Rat MI model, Example 11 dose-response, echocardiography; assay type: in vivo
Experimental: A nonclinical efficacy pharmacology study is conducted in a rat model of heart failure with reduced ejection fraction (HFrEF) to identify dose-response relationship for Example 11.
Briefly, the rats are anesthetized and positively ventilated throughout the procedure. […] The left coronary artery is permanently ligated. The sham-operated animals undergo the same procedure except the silk suture is placed around the left coronary artery without being tied. All rats are individually housed in a temperature and humidity controlled room and maintained on a 12 hour light/dark cycle. Three weeks after surgery, rats undergo transthoracic echocardiography for determination of ejection fraction (EF %) and left ventricle dimensions (LVD) using a Vevo 2100 ultrasound system. Rats are randomized across treatment groups according to EF % and LVD.
Measurements of EF % and LVD are expressed as mean values±standard error (SE). Statistical analysis is performed with JMP® 13 software (SAS Institute, Inc.; Cary, N.C.) and Dunnett's Test is used for statistical comparisons across treatment groups. Statistical significance is accepted at P<0.05.
Two to three weeks after MI surgery, animals are allocated to treatment groups and treated with a single injection of vehicle (DPBS) or one of the 3 dose levels (0.3, 1, 3 mg/kg) of Example 11.

[4] = maximal signal relative to native human NRG1 per plate
[5] = purified proteins, phospho-ERK1/2

B1: Example 11: NRG4 D1G/V22Q/E44K, (GGGGS)3 linker, SEQ ID NO: 19, fused to IgG Fc dimer SEQ ID NO: 8 and 9 (protein)
chain 1: GGGGSGGGGSGGGGSGHEEPCGPSHKSFCLNGGLCYQIPTIPSPFCRCVENYTGARCEKVFL
chain 2: ECPPCPAPPVAGPSVFLFPPKPKDTLMASRTPEVTCVVVDVSHEDPEVQFNWYVDGVEVHNAKTKPREEQFNSTFRVVSVLTVVHQDWLNGKEYKCKVSNKGLPAPIEKTISKTKGQPREPQVYTLPPSREEMTKNQVSLWCLVKGFYPSDIAVEWESNGQPENNYKTTPPVLDSDGSFFLYSKLTVDKSRWQQGNVFSCSVMHEALHNAYTQKSLSLSPG
chain 3: B1 chain 2 with W141S, L143A, Y182V
EC50 (human HER2/HER3): > 1000 nM | % Maximal NRG1 activity (rat HER2/HER4; [4]): 96 ± 2 (N = 2) % | EC50 (rat HER2/HER4; [5]): 0.17 ± 0.06 nM | % Maximal NRG1 activity (human HER2/HER4; [4]): 79 ± 2 (N = 5) % | EC50 (human HER2/HER4; [5]): 0.55 ± 0.11 nM | plasma concentration [1]: undetectable at 96 hours | EC50 (rat HER2/HER3): > 1000 nM | inspections of tissue (cardiac toxicity) (cynomolgus monkeys): cardiac degeneration and necrosis | time for detectable plasma concentrations to be cleared [2]: > 168 h | inspections of tissue (cardiac toxicity) (rats): no evidence of cardiac degeneration and/or necroses | Ejection Fraction ([3]; 0.3 mg/kg single injection, 7 days after dosing): 50.1* % | Ejection Fraction ([3]; 0.3 mg/kg single injection, 14 days after dosing): 42.6% | Ejection Fraction ([3]; 0.3 mg/kg single injection, 21 days after dosing): 36.4% | Ejection Fraction ([3]; 0.3 mg/kg single injection, Baseline (before dosing)): 45.4% | Ejection Fraction ([3]; 1 mg/kg single injection, 7 days after dosing): 52.4* % | Ejection Fraction ([3]; 1 mg/kg single injection, 14 days after dosing): 42.2% | Ejection Fraction ([3]; 1 mg/kg single injection, 21 days after dosing): 39.7% | Ejection Fraction ([3]; 1 mg/kg single injection, Baseline (before dosing)): 46.6% | Ejection Fraction ([3]; 3 mg/kg single injection, 7 days after dosing): 54.7* % | Ejection Fraction ([3]; 3 mg/kg single injection, 14 days after dosing): 54.0* % | Ejection Fraction ([3]; 3 mg/kg single injection, 21 days after dosing): 39.6% | Ejection Fraction ([3]; 3 mg/kg single injection, Baseline (before dosing)): 45.8% | LVD dilation ([3]; 0.3, 1, 3 mg/kg single injection vs vehicle, course of the study (data not shown)): No differences in LVD dilation are observed across groups
